Measured values as given in publication PMC3107500 (2011).

Molecular target: T1, PITPNM3 (Homo sapiens, UniProt Q9BZ71)
T1 chain: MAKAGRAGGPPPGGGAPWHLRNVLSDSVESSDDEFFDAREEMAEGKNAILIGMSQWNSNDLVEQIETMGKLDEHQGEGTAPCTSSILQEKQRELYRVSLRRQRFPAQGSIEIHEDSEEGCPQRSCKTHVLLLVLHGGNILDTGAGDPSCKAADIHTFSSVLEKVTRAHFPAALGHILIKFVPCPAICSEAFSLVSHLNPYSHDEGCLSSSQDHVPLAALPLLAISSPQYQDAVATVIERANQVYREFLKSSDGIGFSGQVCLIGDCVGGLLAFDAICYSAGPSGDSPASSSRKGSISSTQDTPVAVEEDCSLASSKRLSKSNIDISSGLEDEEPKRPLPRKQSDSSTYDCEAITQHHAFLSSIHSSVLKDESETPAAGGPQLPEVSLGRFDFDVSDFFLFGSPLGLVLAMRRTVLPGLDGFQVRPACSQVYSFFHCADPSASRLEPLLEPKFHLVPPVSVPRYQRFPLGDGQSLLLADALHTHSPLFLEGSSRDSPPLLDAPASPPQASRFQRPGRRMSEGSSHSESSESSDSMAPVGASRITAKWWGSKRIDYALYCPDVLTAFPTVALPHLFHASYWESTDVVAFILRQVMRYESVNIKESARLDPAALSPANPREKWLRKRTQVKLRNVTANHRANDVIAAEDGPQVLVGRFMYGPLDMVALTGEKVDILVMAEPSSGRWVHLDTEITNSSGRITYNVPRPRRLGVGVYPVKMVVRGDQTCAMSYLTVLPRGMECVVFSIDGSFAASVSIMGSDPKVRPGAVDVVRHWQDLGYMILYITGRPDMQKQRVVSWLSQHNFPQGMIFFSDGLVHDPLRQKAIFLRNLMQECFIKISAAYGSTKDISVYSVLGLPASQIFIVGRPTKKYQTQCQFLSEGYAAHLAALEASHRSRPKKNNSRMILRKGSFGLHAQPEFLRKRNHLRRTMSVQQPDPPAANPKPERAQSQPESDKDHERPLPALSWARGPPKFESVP
Test: 125I-CCL18 radioligand competition binding on PITPNM3-transfected HEK293 cells

B1: CCL4 (protein)
chain: APMGSDPPTACCFSYTARKLPRNFVVDYYETSSLCSQPAVVFQTKRSKQVCADPSESWVQEYVYDLELN
How did the Kd turn out when B1 was run?
The Kd was 833 nM.

B2: CCL3 (protein)
chain: SLAADTPTACCFSYTSRQIPQNFIADYFETSSQCSKPGVIFLTKRSRQVCADPSEEWVQKYVSDLELSA
How did the Kd turn out when B2 was run?
Its Kd is 277 nM.

B3: CCL18 (protein)
chain: GTNKELCCLVYTSWQIPQKFIVDYSETSPQCPKPGVILLTKRGRQICADPNKKWVQKYISDLKLNA
How did the Kd turn out when B3 was run?
The Kd was 5.17 nM.
